Columns and labels:
Type in all cases: in vivo
[1] = tested on: Arabidopsis thaliana T1 plants; assay: Topramezone tolerance of transgenic Arabidopsis thaliana T1 plants (spray, bleached leaf area grade, damage score); conditions: 7 DAT, Table 4; for Classification and statistics of the grade of pesticide damage: Grade 0 / Classification and statistics of the grade of pesticide damage: Grade 1 / Classification and statistics of the grade of pesticide damage: Grade 2 / Classification and statistics of the grade of pesticide damage: Grade 3: number of plants; for Scores: pesticide damage score 0-100
Procedure, shortened: (§1)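 Damage graded 0–3 from the proportion of bleached leaf area 7 days after spraying. Plants were glufosinate-selected T1 lines, 18 days after sowing, plus vector and wild-type controls. Rates: mesotrione 52.5–420, isoxaflutole 35–280, topramezone 25–200 g ai/ha, with water (0×).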

[2] = tested on: Arabidopsis thaliana T1 plants; assay: Isoxaflutole tolerance of transgenic Arabidopsis thaliana T1 plants (spray, bleached leaf area grade, damage score); design: Scores (pesticide damage): scale not given here; conditions: spray, Arabidopsis thaliana T1 plants; for Classification and statistics of the grade of pesticide damage: Grade 0 (number of plants) / Classification and statistics of the grade of pesticide damage: Grade 1 (number of plants) / Classification and statistics of the grade of pesticide damage: Grade 2 (number of plants) / Classification and statistics of the grade of pesticide damage: Grade 3 (number of plants): 16 plants
Procedure, shortened: as §1

[3] = tested on: Arabidopsis thaliana T1 plants; assay: Mesotrione tolerance of transgenic Arabidopsis thaliana T1 plants (spray, bleached leaf area grade, damage score); design: Scores: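 damage score 0-100 computed as Σ(N×S)/(T×M)×100 over grades 0-3 with higher meaning more damage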; conditions: Arabidopsis thaliana T1 plants; for Grade 0 (classification and statistics of the grade of pesticide damage; number of plants) / Grade 1 (classification and statistics of the grade of pesticide damage; number of plants) / Grade 2 (classification and statistics of the grade of pesticide damage; number of plants) / Grade 3 (classification and statistics of the grade of pesticide damage; number of plants): 16 plants
Procedure, shortened: as §1

[4] = isoxaflutole 35 g ai/ha (0.5x field concentration)
[5] = isoxaflutole 70 g ai/ha (1x field concentration)

B1: MsHPPDm-F383W-02: nucleotide sequence encoding Medicago sativa HPPD with F383W; vector DBN11736 (nucleic acid)
DNA: ATGGCTATTGAAACCGAAACACAAACTCAGACTGGATTTAAACTGGTAGGGTTCAAGAATTTCGTTAGGGCTAATCCCAAGTCTGATCGTTTTAAGGTCAAGAGGTTCCACCACGTGGAGTTCTGGTGCACTGATGCAACCAACACGGCGCGGCGTTTTTCACATGGTCTTGGAATGCCTATTGTTGCAAAATCCGACCTCTCCACGGGGAACCAAACACACGCCTCTTACCTGCTACGGAGTGGTGACTTGAACTTCCTCTTCAGCGCCGCCTACTCACCCTCCATATCGTTGTCTTCACCATCCTCGACCGCAGCAATTCCTACATTTTCTGCGAGCAACTGCTTCTCTTTCTCTGCCAGTCATGGCCTCGCCGTCAGAGCAGTGGCCGTTGAAGTAGAGGATGCTGAACTTGCTTTTACAACTTCAGTGAATAATGGAGCAATACCGAGCAGTCCGCCGGTCATACTTGAGAATCATGTGAAGCTAGCGGAGGTGAGGCTTTATGGGGACGTCGTTTTAAGATATGTCAGCTACAATGATCCAAACCCCAATCAAAATCCAAATTTGTTGTTCCTTCCTGGCTTCGAGCGTGTTAGCGATGAATCTTCAAACTCTTCACTGGATTTTGGAATCAGACGGTTGGATCATGCTGTTGGAAATGTTCCTGAACTCTCGAGCGCTGTGAAATATGTGAAGGACTTCACCGGTTTTCATGAATTTGCTGAGTTTACTGCAGAAGATGTGGGTACATCAGAGAGTGGCTTGAATTCCGTGGTGCTCGCCAACAACGAGGAGACTGTACTCTTACCAATGAATGAGCCAGTCTATGGCACCAAGCGTAAATCTCAAATTGAGACATATTTGGAGCACAATGAAGGAGCTGGACTTCAGCATCTCGCGCTGAAGAGTGAGGACATCTTCCGCACCCTACGGGAGATGAGGAAAAGAAGTGGTGTTGGTGGGTTTGAATTCATGCCATCACCTCCTGTCACCTACTACAGGAACCTGAAGAACAGAGTTGGTGATGTACTTTCGGACGAGCAGATAAAGGAATGTGAAGAGTTGGGGATTTTGGTTGATAGAGATGATCAAGGAACACTCCTGCAGATTTTTACAAAACCAATTGGCGACCGCCCCACTATCTGGATAGAGATCATCCAGAGGGTGGGGTGCATGCTCAAAGACGAGGAAGGGAAGGAGTACCAGAAGGGCGGCTGTGGTGGTTTTGGGAAAGGAAACTTTTCTGAGTTATTCAAATCAATTGAAGAGTATGAGAAGACGCTTGAAACGCGTCGCACTGCTTGA
modifications: MsHPPDm-F383W-02 Nucleotide Sequence
notes: vector DBN11736
- Classification and statistics of the grade of pesticide damage: Grade 0 ([1]; topramezone 25 g ai/ha (1×)): 0
- Classification and statistics of the grade of pesticide damage: Grade 1 ([1]; topramezone 25 g ai/ha (1×)): 0
- Classification and statistics of the grade of pesticide damage: Grade 2 ([1]; topramezone 25 g ai/ha (1×)): 4
- Classification and statistics of the grade of pesticide damage: Grade 3 ([1]; topramezone 25 g ai/ha (1×)): 12
- Classification and statistics of the grade of pesticide damage: Grade 0 ([1]; topramezone 100 g ai/ha (4×)): 0
- Classification and statistics of the grade of pesticide damage: Grade 1 ([1]; topramezone 100 g ai/ha (4×)): 0
- Classification and statistics of the grade of pesticide damage: Grade 2 ([1]; topramezone 100 g ai/ha (4×)): 0
- Classification and statistics of the grade of pesticide damage: Grade 3 ([1]; topramezone 100 g ai/ha (4×)): 16
- Scores ([1]; topramezone 25 g ai/ha (1×)): 92
- Scores ([1]; topramezone 100 g ai/ha (4×)): 100
- Resistance evaluation ([1]; topramezone 25 g ai/ha (1×)): non-resistant (non-resistant plants (scores 68-100))
- Resistance evaluation ([1]; topramezone 100 g ai/ha (4×)): non-resistant (non-resistant plants (scores 68-100))
- Resistance evaluation [2, 4]: Non-resistant
- Scores (pesticide damage) [2, 4]: 88
- Classification and statistics of the grade of pesticide damage: Grade 0 (number of plants) [2, 4]: 0
- Classification and statistics of the grade of pesticide damage: Grade 1 (number of plants) [2, 4]: 0
- Classification and statistics of the grade of pesticide damage: Grade 2 (number of plants) [2, 4]: 6
- Classification and statistics of the grade of pesticide damage: Grade 3 (number of plants) [2, 4]: 10
- Resistance evaluation [2, 5]: Non-resistant
- Scores (pesticide damage) [2, 5]: 100
- Classification and statistics of the grade of pesticide damage: Grade 0 (number of plants) [2, 5]: 0
- Classification and statistics of the grade of pesticide damage: Grade 1 (number of plants) [2, 5]: 0
- Classification and statistics of the grade of pesticide damage: Grade 2 (number of plants) [2, 5]: 0
- Classification and statistics of the grade of pesticide damage: Grade 3 (number of plants) [2, 5]: 16
- Resistance evaluation ([3]; mesotrione 52.5 g ai/ha): Non-resistant
- Scores ([3]; mesotrione 52.5 g ai/ha): 100
- Grade 0 (classification and statistics of the grade of pesticide damage; number of plants) ([3]; mesotrione 52.5 g ai/ha): 0
- Grade 1 (classification and statistics of the grade of pesticide damage; number of plants) ([3]; mesotrione 52.5 g ai/ha): 0
- Grade 2 (classification and statistics of the grade of pesticide damage; number of plants) ([3]; mesotrione 52.5 g ai/ha): 0
- Grade 3 (classification and statistics of the grade of pesticide damage; number of plants) ([3]; mesotrione 52.5 g ai/ha): 16
- Resistance evaluation ([3]; mesotrione 105 g ai/ha): Non-resistant
- Scores ([3]; mesotrione 105 g ai/ha): 100
- Grade 0 (classification and statistics of the grade of pesticide damage; number of plants) ([3]; mesotrione 105 g ai/ha): 0
- Grade 1 (classification and statistics of the grade of pesticide damage; number of plants) ([3]; mesotrione 105 g ai/ha): 0
- Grade 2 (classification and statistics of the grade of pesticide damage; number of plants) ([3]; mesotrione 105 g ai/ha): 0
- Grade 3 (classification and statistics of the grade of pesticide damage; number of plants) ([3]; mesotrione 105 g ai/ha): 16

B2: GsHPPD-02: nucleotide sequence encoding wild-type Gossypium hirsutum HPPD; vector DBN11738 (nucleic acid)
DNA: ATGGTTCAAACAAATCAATCTGGTTCTGGGAATGATTTCAAGCTGGTTGGTTTCTCAAATTTTGTGCGTAGCAATCCCAAATCAGACCGCTTCACGGTCAAGAGATTCCACCACATTGAATTTTGGTGCACTGATGCCACTAATGTGGCGAGGAGGTTTTCATGGGGTTTAGGGATGCAGTTCGTCGCCAAGAGTGACCTCTCCACAGGAAATTTGACGCATGCAAGCTACCTGCTGCGGAGCCGCGACTTGAATTTCCTGTTTACAGCACCATATTCACCCAGTATTGCAGTTGCTCAAAACCTTTCGCCACAAAGCACTGCTTCCATACCTTCATTTGATCACTCGCTTTGTCGGTCCTTTGCTGCAACACATGGACTTGGCGTCAGAGCAATTGCCATCGAGGTGGACGACGCCGAAACTGCCTTCACCACGAGCGTGACACATGGCGCGCTCCCTTTTTGTCCACCAACACCACTAGGAGATGTGGCTACAATTGCTGAAGTTAAATTATATGGTGATGTTGTGCTCAGATATGTTTCTTACACCACAACCATCAACTCCGACCATGATTTTCTGCCTGGTTTTGAGAAGATTGAAGATACTCTATCGTATCCTTTGGATTATGGCCTGCGTCGGCTCGATCATGCTGTTGGCAACGTACCTGAATTAGGTCCTGCTGTATCTTATGTGAAATCTTTTACTGGGTTCCATGAGTTTGCAGAGTTCACCGCTGAGGATGTAGGAACAAGTGAATCTGGGCTGAACTCAGTTGTTTTGGCCAACAATGAGGAAATGGTCCTCTTACCAATGAACGAGCCGGTGTTCGGCACTAAGCGCAAATCTCAAATACAGACCTACTTGGAGCACAATGAAGGAGCTGGTGTGCAGCACCTCGCCCTCGTCTCGGAGGACATCTTCAAAACTTTAAGGGAGATGAGGAAACGATCCTTTGTGGGAGGATTTGAATTCATGCCTTCTCCGCCGCCGACATACTACAAGAAGCTCAAGCAGCGCGCGGGGGACATTTTGTCTGATGAGCAGATCAAGGAGTGTGAAGAGCTTGGGATTCTTGTTGATAGAGATGATCAAGGAACGCTTCTGCAGATATTTACCAAGCCCGTCGGCGACCGGCCTACTATATTCATTGAGATCATCCAGAGAATTGGTTGCATGGTGAAGGATGAAGAAGGGAAACAGTACCAGAAGGGCGGCTGCGGCGGGTTTGGAAAAGGAAACTTCAGTGAGCTGTTTAAAAGTATAGAGGAGTATGAAAAGAGCTTGGAAGCAAAACAATCACAAAATCCATGA
modifications: GsHPPD-02 Nucleotide Sequence
notes: vector DBN11738
- Classification and statistics of the grade of pesticide damage: Grade 0 ([1]; topramezone 25 g ai/ha (1×)): 0
- Classification and statistics of the grade of pesticide damage: Grade 1 ([1]; topramezone 25 g ai/ha (1×)): 0
- Classification and statistics of the grade of pesticide damage: Grade 2 ([1]; topramezone 25 g ai/ha (1×)): 0
- Classification and statistics of the grade of pesticide damage: Grade 3 ([1]; topramezone 25 g ai/ha (1×)): 16
- Classification and statistics of the grade of pesticide damage: Grade 0 ([1]; topramezone 100 g ai/ha (4×)): 0
- Classification and statistics of the grade of pesticide damage: Grade 1 ([1]; topramezone 100 g ai/ha (4×)): 0
- Classification and statistics of the grade of pesticide damage: Grade 2 ([1]; topramezone 100 g ai/ha (4×)): 0
- Classification and statistics of the grade of pesticide damage: Grade 3 ([1]; topramezone 100 g ai/ha (4×)): 16
- Scores ([1]; topramezone 25 g ai/ha (1×)): 100
- Scores ([1]; topramezone 100 g ai/ha (4×)): 100
- Resistance evaluation ([1]; topramezone 25 g ai/ha (1×)): non-resistant (non-resistant plants (scores 68-100))
- Resistance evaluation ([1]; topramezone 100 g ai/ha (4×)): non-resistant (non-resistant plants (scores 68-100))
- Resistance evaluation [2, 4]: Non-resistant
- Scores (pesticide damage) [2, 4]: 100
- Classification and statistics of the grade of pesticide damage: Grade 0 (number of plants) [2, 4]: 0
- Classification and statistics of the grade of pesticide damage: Grade 1 (number of plants) [2, 4]: 0
- Classification and statistics of the grade of pesticide damage: Grade 2 (number of plants) [2, 4]: 0
- Classification and statistics of the grade of pesticide damage: Grade 3 (number of plants) [2, 4]: 16
- Resistance evaluation [2, 5]: Non-resistant
- Scores (pesticide damage) [2, 5]: 100
- Classification and statistics of the grade of pesticide damage: Grade 0 (number of plants) [2, 5]: 0
- Classification and statistics of the grade of pesticide damage: Grade 1 (number of plants) [2, 5]: 0
- Classification and statistics of the grade of pesticide damage: Grade 2 (number of plants) [2, 5]: 0
- Classification and statistics of the grade of pesticide damage: Grade 3 (number of plants) [2, 5]: 16
- Resistance evaluation ([3]; mesotrione 52.5 g ai/ha): Non-resistant
- Scores ([3]; mesotrione 52.5 g ai/ha): 100
- Grade 0 (classification and statistics of the grade of pesticide damage; number of plants) ([3]; mesotrione 52.5 g ai/ha): 0
- Grade 1 (classification and statistics of the grade of pesticide damage; number of plants) ([3]; mesotrione 52.5 g ai/ha): 0
- Grade 2 (classification and statistics of the grade of pesticide damage; number of plants) ([3]; mesotrione 52.5 g ai/ha): 0
- Grade 3 (classification and statistics of the grade of pesticide damage; number of plants) ([3]; mesotrione 52.5 g ai/ha): 16
- Resistance evaluation ([3]; mesotrione 105 g ai/ha): Non-resistant
- Scores ([3]; mesotrione 105 g ai/ha): 100
- Grade 0 (classification and statistics of the grade of pesticide damage; number of plants) ([3]; mesotrione 105 g ai/ha): 0
- Grade 1 (classification and statistics of the grade of pesticide damage; number of plants) ([3]; mesotrione 105 g ai/ha): 0
- Grade 2 (classification and statistics of the grade of pesticide damage; number of plants) ([3]; mesotrione 105 g ai/ha): 0
- Grade 3 (classification and statistics of the grade of pesticide damage; number of plants) ([3]; mesotrione 105 g ai/ha): 16

Reference: US20250043302A1, “MUTATED HYDROXYPHENYLPYRUVATE DIOXYGENASE POLYPEPTIDE, AND CODING GENE AND USE THEREOF” (BEIJING DABEINONG BIOTECHNOLOGY CO., LTD., priority 2021, published 2025)
